# In patent US20210395761, “SERINE RECOMBINASES MEDIATING STABLE INTEGRATION INTO PLANT GENOMES” (GREENVENUS, LLC, published 2021):
# B1: N. benthamiana pseudo-attB Niben101Scf04030 (dsDNA)
# DNA 1: TTGCTGTCTTTTCATACTTTTCTAAGTTGAAAGTACTTGAAAGTACGACCAAGAAAATGATTATATTTGACACAGAAAATGCAAGGTACTTTGAATGTGA
# DNA 2: TCACATTCAAAGTACCTTGCATTTTCTGTGTCAAATATAATCATTTTCTTGGTCGTACTTTCAAGTACTTTCAACTTAGAAAAGTATGAAAAGACAGCAA
# B2: N. benthamiana pseudo-attB Niben101Scf13522 (dsDNA)
# DNA 1: GGATAAGGGAGGGTTTAGATATTTTGAAAGGGTTAAGGGGTAAAATCACTAAGGGGGAATTAACAATGCACACTAGGGTTGCCTTAAAAGTGCCTATATA
# DNA 2: TATATAGGCACTTTTAAGGCAACCCTAGTGTGCATTGTTAATTCCCCCTTAGTGATTTTACCCCTTAACCCTTTCAAAATATCTAAACCCTCCCTTATCC
# B3: N. benthamiana pseudo-attB Niben101Scf11415 (dsDNA)
# DNA 1: CTAATATACATTGACAGTGTTAAAAAAAATCTATTAACGACAATATAGAGAAGAGAGTACTTACATGAATGACGTCTACTTTGACTCCGTCAATTCCAAC
# DNA 2: GTTGGAATTGACGGAGTCAAAGTAGACGTCATTCATGTAAGTACTCTCTTCTCTATATTGTCGTTAATAGATTTTTTTTAACACTGTCAATGTATATTAG
# B4: N. benthamiana pseudo-attB Niben101Scf04574 (dsDNA)
# DNA 1: TAGGCTTACATTCCTGATGTACTATCCCATTATGCAATAATAAAGATGCAAAATAGGAAATGTCATTGACAGCTACGAGATCTATCTTTATTGATTCACT
# DNA 2: AGTGAATCAATAAAGATAGATCTCGTAGCTGTCAATGACATTTCCTATTTTGCATCTTTATTATTGCATAATGGGATAGTACATCAGGAATGTAAGCCTA
# B5: N. benthamiana pseudo-attB Niben101Scf00773 (dsDNA)
# DNA 1: ACATGGAGCAATGATGGAGAAAAATGGTGGTCATTACTACTGAAGTTGTCAAAGCAAAGCTGTCAGGTAACATCAAATGATCTCTAAATCAATTAGTCTT
# DNA 2: AAGACTAATTGATTTAGAGATCATTTGATGTTACCTGACAGCTTTGCTTTGACAACTTCAGTAGTAATGACCACCATTTTTCTCCATCATTGCTCCATGT
# B6: N. benthamiana pseudo-attB Niben101Scf00732 (dsDNA)
# DNA 1: not shown
# DNA 2: not shown
# B7: lettuce pseudo-attB 207599470 (dsDNA)
# DNA 1: CAATGGTGAATATAGTCCGGCGACCAACTCTGTCCACTATCAGCAACGATAAAAAGGTCATGCTAAGACCCACAAGCCCAGTCACCACTGCTGACATAAG
# DNA 2: CTTATGTCAGCAGTGGTGACTGGGCTTGTGGGTCTTAGCATGACCTTTTTATCGTTGCTGATAGTGGACAGAGTTGGTCGCCGGACTATATTCACCATTG
# B8: lettuce pseudo-attB 411877132 (dsDNA)
# DNA 1: ATAAGTTTAGATCTTATTGAACTAGGCTTGTGGTGCTTGTTTAAGGCCATAAATCGCCTTATTCAAGCGACAAAAATGAGACGAATAGGTGGAGTCTTCA
# DNA 2: TGAAGACTCCACCTATTCGTCTCATTTTTGTCGCTTGAATAAGGCGATTTATGGCCTTAAACAAGCACCACAAGCCTAGTTCAATAAGATCTAAACTTAT
# B9: lettuce pseudo-attB 328302882 (dsDNA)
# DNA 1: TCCGTCACAAATTGCATCACTACGACTAAGATCTTCATCAATGATTCTATTAAGGAGATTCTTACATTGAAGGAGAAGTTACATAAATTCTTTATTATTT
# DNA 2: AAATAATAAAGAATTTATGTAACTTCTCCTTCAATGTAAGAATCTCCTTAATAGAATCATTGATGAAGATCTTAGTCGTAGTGATGCAATTTGTGACGGA
# B10: lettuce pseudo-attB 13364626 (dsDNA)
# DNA 1: TGAATTTCTTATGAAGGTTACAACGCATCGTGGATTACAAGCAATTCTGTTTAGTCTGTTATGTTGTTGAATTTGAATGGATCTTGTCCTCAGTTACTCA
# DNA 2: TGAGTAACTGAGGACAAGATCCATTCAAATTCAACAACATAACAGACTAAACAGAATTGCTTGTAATCCACGATGCGTTGTAACCTTCATAAGAAATTCA
# B11: lettuce pseudo-attB 310607752 (dsDNA)
# DNA 1: CACAAAAAATTGACCATTTCTAGCAACTTCCTATGATACGTTGATACTTTCTAAACATTAATTACAATGACAAAATGAAGTCTACCAAATCATTCATAGA
# DNA 2: TCTATGAATGATTTGGTAGACTTCATTTTGTCATTGTAATTAATGTTTAGAAAGTATCAACGTATCATAGGAAGTTGCTAGAAATGGTCAATTTTTTGTG
# B12: lettuce pseudo-attB 115327723 (dsDNA)
# DNA 1: TATTTGTGATGTGACATGACAAATAATGATGTTACAATATTATGTACCTCTAAATGAGATCTAGCATTGAAGATTGCATGAATATTCTTGAGTGTGTTATT
# DNA 2: AATAACACACTCAAGAATATTCATGCAATCTTCAATGCTAGATCTCATTTAGAGGTACATAATATTGTAACATCATTATTTGTCATGTCACATCACAAATA
# Biological target: T1, SPβc2 serine recombinase (SPβc2-HA-NLS) (Bacillus subtilis phage SPβc2, UniProt O32006 SEQ:1-545)
# Experiment: cell_activity; partner attP vector
# Details: tags: C-terminal HA and SV40 NLS
# Description: Wild tobacco relative Nicotiana benthamiana (Benthi) events were generated through co-transfection of a SPβc2 expression vector (or control filler vector: CAT) plus a target integration vector containing GFP, NptII, and a SPβc2 attachment site (attP, attB, or site-less control). Colonies were regenerated in the presence of a kanamycin gradient to detect NptII and the presence of GFP was determined through illumination with a blue “biolight” together with an appropriate filter (FIG. 1). […] Enhanced regeneration of transgenic colonies varied between 10 and 65 fold and was dependent on the Kanamycin concentration used for selection. […] Very few GFP-positive kanamycin-resistant colonies arose from the attB/SPβc2 or Siteless/SPβc2 conditions, indicating a dependence on the attP site for interaction with plant pseudo-attB sites. […] A total of 126 plants from 91 unique calli events were regenerated, transplanted into soil, and carried forward to seed collection (Table 7).
# To determine whether any of the sites identified by GenomeWalker were preferentially utilized for integration by the SPβc2 recombinase, 64 attP/SPβc2 regenerated events were screened by end-point PCR for amplification of the left (35S side) gDNA:insert border.
# T1 sequence (O32006 whole entry): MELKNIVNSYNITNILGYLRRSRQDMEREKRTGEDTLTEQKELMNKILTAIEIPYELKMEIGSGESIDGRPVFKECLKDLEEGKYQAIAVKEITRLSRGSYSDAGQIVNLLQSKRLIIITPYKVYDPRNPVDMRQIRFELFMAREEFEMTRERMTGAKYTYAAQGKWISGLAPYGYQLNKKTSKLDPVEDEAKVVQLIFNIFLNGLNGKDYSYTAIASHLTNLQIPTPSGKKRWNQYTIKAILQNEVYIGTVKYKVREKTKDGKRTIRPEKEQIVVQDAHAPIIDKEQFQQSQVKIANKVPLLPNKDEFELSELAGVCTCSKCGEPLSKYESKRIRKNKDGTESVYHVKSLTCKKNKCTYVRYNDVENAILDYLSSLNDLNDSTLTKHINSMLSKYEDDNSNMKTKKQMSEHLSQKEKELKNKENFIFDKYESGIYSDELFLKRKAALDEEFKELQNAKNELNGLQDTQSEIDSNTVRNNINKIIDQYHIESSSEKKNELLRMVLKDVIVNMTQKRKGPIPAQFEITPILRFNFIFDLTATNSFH
row,Binder,activity [integration events]
1,B1,2
2,B2,2
3,B3,1
4,B4,1
5,B5,1
6,B6,1

# Biological target: T1, SPβc2 serine recombinase (SPβc2-HA-NLS)
# Experiment: cell_activity; partner attP vector
# Details: tags: C-terminal HA and SV40 NLS
# Remark: another data set of the same source
# Text: In addition to the 20 GFP-positive kanamycin-resistant regenerated events, 35 GFP-positive kanamycin-resistant calli were also sampled for gDNA extraction and insertion analysis. These events were not analyzed by qPCR for NPT-II copy number due to the likelihood of circular non-integrated plasmid being present in the callus tissue. The 55 unique GFP-positive kanamycin-resistant attP/SPβc2 events were screened by end-point PCR for the right gDNA:insert junction (SpecR side) for each of the 7 previously identified integration sites. Four of the 7 insertion sites were identified in multiple unique events with one of the integration sites found in 8 events including the 2 events in which it was identified by next-gen sequencing (Table 13). Sanger sequencing of amplicons from both left and right gDNA:insert borders for 3 of the events with integrations in site 7493878 identified a lbp difference in the insert:gDNA recombination site compared to the originally identified borders (FIG. 20 C-E). As was done in Benthi, the population was also screened for presence of the recombinase expression construct (ID363); it was found in 2 out of the 20 regenerated attP/SPβc2 events (data not shown).
row,Binder,activity [integration events]
1,B7,7
2,B8,2
3,B9,2
4,B10,1
5,B11,1
6,B12,1
